Assay results taken from the supplement of paper PMC12636428.

Tested on: Saccharomyces cerevisiae
Experiment: transcriptional activation domain activity (GFP:mCherry ratio, weighted mean of sorted bins, harmonized to initial dataset scale) (arbitrary fluorescence ratio units); higher = stronger transcriptional activation
Conditions: beta-estradiol 1 µM; induction time 4 h
Summary of the method: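 For this assay, yeast diploids with a GFP reporter carried barcoded protein tiles at URA3, each fused to an estradiol-inducible synthetic transcription factor. Induction was a 1:5 dilution into SC with 1 uM beta-estradiol for 4 hours at 30 °C, followed by sorting into 8 bins by GFP:mCherry ratio and barcode sequencing. Tiles under 50 reads were dropped, and activation activity was calculated as the read-weighted mean of bin median fluorescence, averaged across barcodes and linearly mapped onto the initial dataset scale.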

| Sequence | transcriptional activation domain activity |
| --- | --- |
| FNLYLLSWLHLLSSKSSSLGNSSAWWIRPVEITMMSCYWYIFGYLLLWCTLPT | 38200 |
| FNNDGWDTSLPIDFDFDEFNTETTDFDDFLKLLGDNSPSKEQKSLSYSPTATG | 162000 |
| FPAHFLSLLLTPISFSPLPIFPCTYINFLPLLQYLLLGNFFFGCIIWRPMTFC | 59000 |
| FPCFFISLFPCLLSLSISLFPCLVISLSFFLISLFPFLFLFFPFLSFSLFPYF | 68500 |
| FPEMITILIFTWSHNPLPHLVWHNQQECGSSLSTRFLCIFAVILCIWFVKRVF | 59700 |
| FPFFLSSLFFFLPFFSFFPFFLSSLFLLLFFSFSSSSYQTFSLREQFFHLFFT | 43500 |
| FPFSLLVLLIFYVFSFVFVICYMGILGAQYVYFYFSYIFDCHPLPLLRRLSFF | 36900 |
| FPHNETLPALGQDGINEDNLNETIDNMLIFDFLDDGSENNQVKYSRIIPPDIR | 89000 |
| FPILLRFIFTHFRMLFSCQLFCLMGFRVECLDFDPGSFILFHLTFLWLPFVLF | 53300 |
| FPIRIYSYVKLKWHLFLFDYCYFASMLNLIYLWILPNSTLLFTICYCAAHGPL | 61800 |
| FPPLFVSPLRLRYPFCGILFNIDTLFFRFLLVHIWLPFFCTYLYPYLLPFHWA | 74200 |
| FPPPFPPPFPPPFLSSFPPPVPLPLTFPLPPFPFQFPFPFPHPLTFPLPFPFP | 17600 |
| FPRLTDMVCELEDYLRPLAEHARAADVELVEIAVVSVYVNILNFSWKARCVFV | 43600 |
| FPRLVGCIAASLEGLPSTRNGRTAYCVLRVVASYFLCLIRNLMFSDLPVVRCR | 68700 |
| FPSLRLPFCVCLWFRLFVFFFHIGSFVLLVRLFFFFFNFGLFFLFFFLFSFFS | 27500 |
| FPTLGFVVDRYFRVTNFVPETFWSIKVVHKKDSINVNFNWKRGHLFDRMTVTV | 71400 |
| FPTVLVYYLLFAIGRLCTIMLYAALETCLAFMNHFPLFAMMLRLKDPARLPGG | 61800 |
| FPYFPYFPYFPYFLYFLFSLFSLLSLLPLLLYFLHPFLFLTCFWFSKLACFLS | 51400 |
| FQAQGDDELTVVEGDALWIIEQEGDEWWKCRNIKGDEGVVCVVIPRPTGAGRL | 36300 |
| FQFPIDFTNDFSDGFSLDADIGQFMDPLLLTSFLPSPIPFDDGTELSSLELLH | 167000 |
| FQLWKSLNCAYSSVQVTSQGFSIGILFWTLLEYVLHRFLFHLDKLLPDHPIAL | 63900 |

| Sequence | transcriptional activation domain activity |
| --- | --- |
| FQNISNTILDISLSHGKVPNMDQLTRELFGASDSYQDILDENNVDVSWVDKLV | 103000 |
| FQPAVATPTVSIGLIYLIIMAFFSFSFFLPIHMKYIQPQGHPPLHFWQLIIWR | 68900 |
| FQTFYSNFKRKVLVWSLRFTNLTYNQPLVWHATFVYILALLSMPWFKAKFIPS | 43800 |
| FQTIHVDASCIGIASPLVHVELQPDLCGRKFPELIGIDLTAATLVRLLSLLCL | 43000 |
| FRAPYPCCLDVVFAMIWAGARVCLFDSTKALEDLLLARFVLPPHVVCLVGLAQ | 48900 |
| FRCLFLLFLLFSLICCRAISLQKHCLCLTYASSTALFVIVFILLLFWYLIIIT | 76100 |
| FREELVHFFKDPNFDPKLAFESSSYIVNHVLKLTLVMWRYLLVKVEHSFLIAM | 59800 |
| FRFLLKLLLVHGRWNYIRTCKYTLGTFWKEMLFYLTQALYQRWAGYTGTSLYE | 54800 |
| FRFQQCMTRAMTLIKMYFVGSLRALSLDVFKRLSEKDVSPTAQMHLLYTRFKT | 56200 |
| FRLAFMLICVDVFLALFHILDYVLYIPSRVCTFSAWGTLTCELMTIFLNVTIA | 52500 |
| FRLVPFVLWPPFTRRQTDELYLFSWSFLALIWFFIWSLVQFPIVLTVLLSLVF | 52000 |
| FRMVLLVYQVAWAVHVYRTRNIALAYLNNYARMMYAIRSYNYQCLFHQIDLEG | 57100 |
| FRNGPWWCLAHYIMRAMAVFLLAMSPQVLQVHTDLVLPVKKLIRWLQWMRQDD | 64200 |
| FRPAPPPCSPAPPSPSSSPSSSSPPPPPPSRARRWSSAARARNAATTPCASSG | 37900 |
| FRRYKGPGREDEETDDEDEVRPRRPMEMKKRVLHLLTTEITINTTLYGDFTAF | 27700 |
| FRSFVLMRLLVPIPAYFVLSCMFSMINLPFKLSFGGMGYGYGAGFMIWWCFTF | 65100 |
| FRSGHSFPRKFGFCVEFTYNFISLLFNWFGLVSASIFFFCFSLFLFFVFYVLT | 25000 |
| FRVASYRIWCLLGCGSVWSLIYVPLAWNDGFSLFYLLHPWKIVRVFILNVLAG | 54700 |
| FRVNLMSCIVARLSKKSWIRSVSFPADLTGTASLEIVRLLNRMVKEKRFNIHP | 36300 |
| FRYLSYSKWLILALYINSWAYVVLSMLLVYVVSASRKGRWRSASYRFHMILLS | 64100 |
| FSAEIAILRWLKGNRQNDYIGALTSINRGLKLMYVHAYQSLVWNRAVSERWAR | 57900 |

| Sequence | transcriptional activation domain activity |
| --- | --- |
| FSDGELSDDALDKQGKKEKKRKAKAIESGDATPVESKPEKERKKKKSKPEAET | 31100 |
| FSFFFFLFSLFLSFPSFLLPSFLLLFLSFYFSPSYLLLCLFSLIFYKLWPLFL | 25500 |
| FSFFHPLHFLPWLLYPSPLISLFFLSFFILFSFFVFFFSCPFFLSLFHIFFPV | 33000 |
| FSFGLLFWFLFLFLFLLLFVFLFWSFGFVLLLVLVLFLCSFLLFMFGFWFSSG | 47100 |
| FSFGLYLLYHSPYWMNVAQLWVNYPHIEFMPGIKKYYLIQMSYWLQQMYFIQI | 48700 |
| FSHIQPGLNVPVRTIMFCFLFNVAFGLLYLGPSVAFGAYVASCTILLNISYAF | 70800 |
| FSIVACVVGCQDSEWGLQFSHERCFTLHTLGHLSQFEKIVVVLIACKLLLFSK | 65200 |
| FSLAGSNYLGICWNPAVKNCIPYDTYLLWIRCMPFWYLFVFLYDIIPPILIVY | 59800 |
| FSLFGSFGCFGSLTLLLSLVMPVVLFVMLQWVMVWIWSCCFIFRLGMLTSFDV | 54500 |
| FSLFLLSLLPTADAFFPLLLFVSCWLTLYTFVLCLLSYFFYSLTLTLYVCLVS | 55800 |
| FSLGLRTPLDHLLLAFFVLCGLTRLARFNVTVAMLPKDATGKSQYFEGTPIPT | 73300 |
| FSLGTVLLALCRYLPFGTILQIYVLFLRVESPLCVNGYRAIAFPVVCLWVLLV | 52600 |
| FSLIKGLGSLVPLNKLRQESLLEEEDENNTEPSDFRTIVEEFQSEYNISDILS | 45000 |
| FSLLLDSYIFLFNYCPVRYRYGYLIKDLVQNASRIKSIYTNSDLKFLFSFVWM | 53800 |
| FSLLSFCCLLVPLLLSYIPLTTSHVFPILLFFFTLPLTSALPLLLLYLFHELL | 47000 |
| FSLSLHICFIFSRLIMLHCIFSLLKMIPFCAKFFCFFLFLFLFSPFLLYILFV | 54000 |
| FSMRFVVLIDLFATFLQPASIIYVLYLIYVAAFDKATAFPMISLIMLACIYGL | 17000 |
| FSMTVGFTTAFSFLFLGYPTWGTRLWSFLPFWIGFYNLFVFLSKLDPIWAILF | 48800 |
| FSSINANPFDLDEQLAIELSAFADDSFIFPDEDKPSNNNNNSNNGNDDHSNHD | 80300 |
| FSSLEDSLPSSISPPIQTTSTINFNWCFKEEKNNDLKCKWKECPESCSSLFDL | 69800 |
| FSTSLTSWSTSLNLLFFYMTWSTLVLSHSPLRIELIGITAIRTVLWLIPSLVF | 63100 |

| Sequence | transcriptional activation domain activity |
| --- | --- |
| FSVLFSKLFVWGILPYQTVGVVIQHTCQAVFLFVNIYWTFWRNWPWVQSGFFT | 80100 |
| FSWFALANIWLMFSIIIDLLPGQNIIIFGTADIICGTHWMNLVFKWIYLAFLV | 36900 |
| FSWVELCLSVTWWFFPACLLLSDTLVLVYLTPGLDVLVPFSMIFVYCFLGLPP | 52300 |
| FSYFYCFFFPLFTFFLFHIFVLLSIKQFLFLFLFVFLFLVLLFIVPPLFPVSV | 17300 |
| FTELEKHSNVSQFNTLDVSEGNQVINESASTNTSSALNCQSYTNNQDIMDILF | 48800 |
| FTFILMMACLVSGIGWCLLYFTCMYLLLIYYILSLFYPPLASCNSFSFFFSFV | 64100 |
| FTKTIMHITLILNILMNMCVAPTLLPLQVYYWLTKYYCACHGCLPHFTVIALF | 60900 |
| FTKVIKLVSHFVLYFINICFILITIFFGYFYNLIKFYILLTLYLVSLRTLLSL | 47700 |
| FTMLIGRKRPDVSTCVLIAVVISQCLFYVVVFFVKILGLVKYFLLFSSLADKL | 56300 |
| FTPWLSSTFFLFFAVIRWGAYCLVPLLLPSFPSIPLSLYPIRFPSTHVLVLIV | 61000 |
| FTQFEDTWNLDVTPNFLPDLNDFDMERLDFSLADDFAQSIASFPYSPPETLLI | 149000 |
| FTRHLSKEEIDVVVDCVWRASKLRNCTRVTVMECCVRTAPWFNSDGVICAYIM | 49700 |
| FTRVDICFRNCYAGGTVVLVYSALAFFLLLMIAMYGNGYHGPFAWMTFTLSTV | 53000 |
| FTSIMMTLVSLVQVGLLQFQCRDLLLCGIYIFYCLIKVPYLSLICSATLLVYG | 44300 |
| FTSPLPFALVPLFMYGDAQNWCWFTKQNTLYGIYLWFMWLWILFAFNLVCLFF | 56600 |
| FTYMDRLQLIQAPFPWRDRMALTAITEFVATYYQNMHVDITVTMRKLGYLEKL | 60800 |
| FVARLFQSLRRWWDSGLTTHLINASLFFISDGGKYFMGILCYFFQHLWRHHGM | 47900 |
| FVCVASAIGGVGYLLLLTVAENVHVRYFATFCIVSGTYTTIGIVIAWFAHNLG | 48700 |
| FVEDPEMRRSIVRKFDWRVLTWMAGLSSYLRLWVLYRSSLTRLLMCLVLCINA | 69800 |
| FVEKGRERERGKGRRGGGGGAGEEQREGGGGGRGGGRGKTVVVVVRDVASSGD | 25100 |
